Experimental data: patent US4029771A, “Composition for the treatment of bacterial-intestinal infections” (priority 1975, dated 1977)

Legend:
[1] = test system: experimental animals; assay: Tolerability in experimental animals at therapeutically active doses; format: in vivo
[2] = test system: children affected by acute initial gastroenteropathy; assay: Clinical efficacy test in 32 children with acute initial gastroenteropathy vs chemiantibiotic group; format: in vivo
Experimental: The tests were conducted on a group of 32 children (14 males, 18 females) of an age group comprised between 2 months and 2 years, affected by acute initial gastroenteropathy.
The test group comprised forms of substantial gravity (15.6% of the total cases), forms of intermediate gravity (43.7%), and finally forms of least gravity (40.6%), determined by known clinical diagnostic methods.
In all cases, in addition to the oral or parental rehydration (in 21.8% of the cases there was actually performed a parental rehydration with glucosaline and polyelectric solutions) and to the usual dietetic treatment, there was performed symptomatic therapy with anticholinergic agents.
The product was administered orally to all the test subjects at a dosage of 300 mg. per day, divided into three equal doses.
The duration of the therapy varied from a minimum of 5 days to a maximum of 10 days.
It was thought opportune, on a clinical plane, to evaluate the test results according to the following parameters:
(1) average time of normalization of the abdomen.
(2) number and percentage of the cases with regularization of the abdomen within the first 48 hours (see Table II and figure 1).
(3) average duration of the time of therapy.
There was further compared the test subjects with a group of subjects of similar age and equally affected by acute initial gastroenteropathy which had received, in addition to the usual symptomatic and dietetic therapy, a chemiantibiotic treatment.
It is important to note that this second group presented a clinical physionomy similar to that of the test group (and therefore with a percentage division equal between forms of different gravity) and further belonging chronologically to the same epidemiological period.

[3] = Storage stability of the liophylized product; format: physicochemical
[4] = test system: male and female rat (Sprague-Dawley); assay: Acute toxicity on single administration, male and female rat (Sprague-Dawley); format: in vivo; conditions: for Mortality after 7 days: 1000 mg/kg single dose, 10 rats per dose; for LD50: single administration, 7 days
Experimental: (a) Toxicity on single administration.
The experiment was conducted on rats and mice (male and female) by oral and intraperitoneal administration of conalbumen dissolved in double-distilledsterile water. The animals were kept under control for 7 days following the administration.
Acute toxicity of the product after a single admini-
stration to the male and female rat (Sprague-Dawley).

[5] = test system: germs which are pathogenic to man; assay: Treatment of experimental infections in laboratory animals; format: in vivo; conditions: laboratory animals injected with germs pathogenic to man
[6] = 32 cases per group, product oral 300 mg per day in three doses
[7] = percentage distribution, drawing
[8] = product vs chemiantibiotics group

B1: conalbumen: transferrin (ovotransferrin or conalbumen) extracted in a pure state from egg white (protein, UniProt P02789 20-705, looked up)
Ovotransferrin: APPKSVIRWCTISSPEEKKCNNLRDLTQQERISLTCVQKATYLDCIKAIANNEADAISLDGGQAFEAGLAPYKLKPIAAEVYEHTEGSTTSYYAVAVVKKGTEFTVNDLQGKTSCHTGLGRSAGWNIPIGTLLHRGAIEWEGIESGSVEQAVAKFFSASCVPGATIEQKLCRQCKGDPKTKCARNAPYSGYSGAFHCLKDGKGDVAFVKHTTVNENAPDQKDEYELLCLDGSRQPVDNYKTCNWARVAAHAVVARDDNKVEDIWSFLSKAQSDFGVDTKSDFHLFGPPGKKDPVLKDLLFKDSAIMLKRVPSLMDSQLYLGFEYYSAIQSMRKDQLTPSPRENRIQWCAVGKDEKSKCDRWSVVSNGDVECTVVDETKDCIIKIMKGEADAVALDGGLVYTAGVCGLVPVMAERYDDESQCSKTDERPASYFAVAVARKDSNVNWNNLKGKKSCHTAVGRTAGWVIPMGLIHNRTGTCNFDEYFSEGCAPGSPPNSRLCQLCQGSGGIPPEKCVASSHEKYFGYTGALRCLVEKGDVAFIQHSTVEENTGGKNKADWAKNLQMDDFELLCTDGRRANVMDYRECNLAEVPTHAVVVRPEKANKIRDLLERQEKRFGVNGSEKSKFMMFESQNKDLLFKDLTKCLFKVREGTTYKEFLGDKFYTVISSLKTCNPSDILQMCSFLEGK
[1]
  Toxic manifestation or significant side effects: does not result in toxic manifestation or in significant side effects
[2]; [6]
  Average time of Therapy: 6,1 days
  Percentage normalization within 48 hours: 53,1 Percentage
[2]; 32 cases per group, product oral 300 mg per day in three doses, p <0,40
  Average time of normalization of the abdomen: 2,56
[2]; of 32 cases per group, product oral 300 mg per day in three doses
  No. of cases with normalization within 48 hours: 17
[2]; overall
  Clinical results: very favorable
[2]; overall comparison
  Clinical results with respect to the group treated with chemiantibiotics: definitely better
[2]; [7]
  Distribution in the time of normalization of the abdomen, days with most cases: between the second and third day
  Peak in the time of normalization of the abdomen: second day
[2]; [8]
  Average time of normalization of the abdomen, comparison with chemiantibiotics: slightly lower
  Number of cases and percentage of normalization of the abdomen within the first 48 hours, comparison with chemiantibiotics: higher
[3]; liophylized, kept at ambient or lower temperature
  Maintains its properties unchanged: at least 6 months
[3]; vials containing 100 mg. or more, liophylized form
  Period for which the product can be kept: indefinite periods
[4]; female 90-105 g, oral
  Mortality after 7 days: 0/10
  LD50: > 1000 mg/kg
[4]; female 100-110 g, i.p.
  Mortality after 7 days: 0/10
  LD50: > 1000 mg/kg
[4]; male 100-120 g, i.p.
  Mortality after 7 days: 0/10
  LD50: > 1000 mg/kg
[4]; male 100-130 g, oral
  Mortality after 7 days: 0/10
  LD50: > 1000 mg/kg
[5]
  Efficacy in experimental infections: surprising efficacy
